Assay results from paper PMC3632608.

Key:
[1] = target: A53T mutant α-synuclein (human) (UniProt P37840)
[2] = target: Recombinant human α-synuclein (human) (UniProt P37840)
[3] = target: A30P mutant α-synuclein (human) (UniProt P37840)
[4] = target: Recombinant human β-synuclein (human) (UniProt Q16143); experiment: SEC; Superose 12, 50 mM Tris/HCl pH 7.4, 100 mM NaCl, 1 mM EDTA, 5% glycerol, 0.5 ml/min; 20-50 µg per run; in vitro aged α-synuclein, β-synuclein or co-incubated mixtures; mass estimated from gel filtration standards

reduction of isoaspartate formed in A53T α-synuclein on co-incubation with approximately equimolar β-synuclein, 0-20 days of in vitro ageing (methanol diffusion assay); value after 20 days [1]: 47.9%
reduction of isoaspartate formed in native α-synuclein on co-incubation with approximately equimolar β-synuclein, 0-20 days of in vitro ageing (methanol diffusion assay); value after 20 days [2]: 72.2%
reduction of isoaspartate formed in A30P α-synuclein on co-incubation with approximately equimolar β-synuclein, 0-20 days of in vitro ageing (methanol diffusion assay); value after 20 days [3]: 84.3%
stoichiometry N [4]: 4
Substance: Recombinant human β-synuclein (from UniProt Q16143 1-134) (natural protein)
